Measured values as given in the MegaScale stability set (Tsuboyama et al. 2023).

B1: HEEH_KT_rd6_3632 (parent)
chain: DAEELIELVERALKEGREIILLGVRITSEEAGKWFIEWIRRFL

Variants of: B1
Assay: folding stability dG (cDNA display proteolysis); higher = more stable
Settings: PBS, room temperature

Variant | folding stability dG
V24F | 3.9 kcal/mol
V24S | 2.86 kcal/mol
V24I | 3.98 kcal/mol
V24T | 3.25 kcal/mol
V24N | 2.99 kcal/mol
V24A | 3.15 kcal/mol
V24K | 3.05 kcal/mol
V24W | 3.76 kcal/mol
V24D | 2.71 kcal/mol
V24P | 3.03 kcal/mol
V24Q | 3.13 kcal/mol
V24G | 3.22 kcal/mol
V24E | 2.9 kcal/mol
V24H | 3.42 kcal/mol
V24L | 3.43 kcal/mol
V24Y | 3.55 kcal/mol
V24M | 3.43 kcal/mol
V24R | 3 kcal/mol
G32D | 3.14 kcal/mol
G32M | 4.07 kcal/mol
G32E | 3.22 kcal/mol
G32S | 3.39 kcal/mol
G32W | 4.07 kcal/mol
G32V | 3.86 kcal/mol

Variant | folding stability dG
G32T | 3.64 kcal/mol
G32I | 4.12 kcal/mol
G32Q | 3.43 kcal/mol
G32R | 3.72 kcal/mol
G32Y | 3.85 kcal/mol
G32P | 3.39 kcal/mol
G32K | 3.68 kcal/mol
G32A | 4.05 kcal/mol
G32F | 4.17 kcal/mol
G32H | 3.44 kcal/mol
G32N | 3.38 kcal/mol
G32L | 4.17 kcal/mol
I26W | 3.39 kcal/mol
I26Y | 3.34 kcal/mol
I26K | 3.26 kcal/mol
I26H | 3.09 kcal/mol
I26G | 2.89 kcal/mol
I26D | 2.97 kcal/mol
I26N | 3.21 kcal/mol
I26P | 3.18 kcal/mol
I26L | 3.37 kcal/mol
I26Q | 3.21 kcal/mol
I26C | 4.36 kcal/mol
I26A | 3.34 kcal/mol

Variant | folding stability dG
I26T | 3.49 kcal/mol
I26S | 3.07 kcal/mol
I26R | 3.38 kcal/mol
I26M | 3.32 kcal/mol
I26E | 3.33 kcal/mol
I26V | 3.29 kcal/mol
I26F | 3.44 kcal/mol
F35Y | 3.25 kcal/mol
F35R | 2.98 kcal/mol
F35L | 3.66 kcal/mol
F35I | 3.85 kcal/mol
F35T | 2.96 kcal/mol
F35N | 2.53 kcal/mol
F35G | 2.63 kcal/mol
F35W | 3.44 kcal/mol
F35V | 3.65 kcal/mol
F35D | 2.6 kcal/mol
F35S | 2.86 kcal/mol
F35H | 2.85 kcal/mol
F35M | 3.43 kcal/mol
F35A | 3.03 kcal/mol
F35P | 2.34 kcal/mol
F35Q | 2.85 kcal/mol
F35K | 3.08 kcal/mol

Variant | folding stability dG
F35E | 2.63 kcal/mol
I19C | 4.54 kcal/mol
I19E | 2.63 kcal/mol
I19Y | 3.23 kcal/mol
I19F | 3.43 kcal/mol
I19Q | 2.91 kcal/mol
I19L | 3.56 kcal/mol
I19S | 2.75 kcal/mol
I19P | 2.74 kcal/mol
I19D | 2.66 kcal/mol
I19W | 3.44 kcal/mol
I19T | 2.97 kcal/mol
I19H | 2.98 kcal/mol
I19N | 2.86 kcal/mol
I19V | 3.4 kcal/mol
I19M | 3.23 kcal/mol
I19R | 2.81 kcal/mol
I19K | 2.94 kcal/mol
I19G | 2.96 kcal/mol
I19A | 3.18 kcal/mol
S28Y | 3.47 kcal/mol
S28W | 3.91 kcal/mol
S28E | 3.23 kcal/mol
S28P | 3.5 kcal/mol

Variant | folding stability dG
S28R | 3.43 kcal/mol
S28I | 3.46 kcal/mol
S28F | 3.62 kcal/mol
S28H | 3.36 kcal/mol
S28N | 3.78 kcal/mol
S28Q | 3.13 kcal/mol
S28K | 3.17 kcal/mol
S28C | 3.83 kcal/mol
S28D | 3.63 kcal/mol
S28V | 3.57 kcal/mol
S28M | 3.33 kcal/mol
S28L | 3.73 kcal/mol
S28A | 3.52 kcal/mol
S28G | 3.83 kcal/mol
S28T | 3.71 kcal/mol
A31K | 3.6 kcal/mol
A31N | 3.49 kcal/mol
A31T | 3.86 kcal/mol
A31W | 4.01 kcal/mol
A31L | 4.06 kcal/mol
A31Q | 3.99 kcal/mol
A31G | 3.71 kcal/mol
A31I | 4.34 kcal/mol
A31M | 4.08 kcal/mol

Variant | folding stability dG
A31R | 3.61 kcal/mol
A31P | 3.15 kcal/mol
A31H | 3.68 kcal/mol
A31Y | 3.62 kcal/mol
A31S | 3.65 kcal/mol
A31F | 3.83 kcal/mol
A31D | 3.88 kcal/mol
A31E | 4.2 kcal/mol
A31V | 4.27 kcal/mol
E29S | 3.71 kcal/mol
E29N | 3.81 kcal/mol
E29R | 3.71 kcal/mol
E29K | 3.82 kcal/mol
E29L | 3.93 kcal/mol
E29W | 4.1 kcal/mol
E29V | 3.79 kcal/mol
E29H | 3.67 kcal/mol
E29F | 3.88 kcal/mol
E29A | 3.89 kcal/mol
E29Y | 3.96 kcal/mol
E29T | 3.83 kcal/mol
E29Q | 3.97 kcal/mol
E29D | 3.67 kcal/mol
E29P | 4.06 kcal/mol

Variant | folding stability dG
E29M | 3.92 kcal/mol
E29G | 3.63 kcal/mol
E29I | 3.94 kcal/mol
E18V | 3.91 kcal/mol
E18W | 3.78 kcal/mol
E18Y | 3.78 kcal/mol
E18S | 3.83 kcal/mol
E18T | 3.94 kcal/mol
G23D | 3.37 kcal/mol
G23L | 4.02 kcal/mol
G23T | 3.63 kcal/mol
G23P | 3.28 kcal/mol
G23N | 3.31 kcal/mol
G23R | 3.54 kcal/mol
G23K | 3.55 kcal/mol
G23C | 3.82 kcal/mol
G23M | 3.91 kcal/mol
G23H | 3.6 kcal/mol
G23V | 3.88 kcal/mol
G23A | 3.67 kcal/mol
G23S | 3.56 kcal/mol
G23I | 3.87 kcal/mol
G23Y | 3.91 kcal/mol
G23F | 3.93 kcal/mol

Variant | folding stability dG
G23W | 4.11 kcal/mol
G23E | 3.41 kcal/mol
G23Q | 3.61 kcal/mol
R25Q | 3.41 kcal/mol
R25I | 3.67 kcal/mol
R25W | 3.77 kcal/mol
R25V | 3.64 kcal/mol
R25S | 3.51 kcal/mol
R25L | 3.81 kcal/mol
R25M | 3.66 kcal/mol
R25G | 3.32 kcal/mol
R25A | 3.68 kcal/mol
R25P | 3.14 kcal/mol
R25F | 3.79 kcal/mol
R25E | 3.28 kcal/mol
R25T | 3.56 kcal/mol
R25N | 3.44 kcal/mol
R25K | 3.57 kcal/mol
R25Y | 3.65 kcal/mol
R25D | 3.21 kcal/mol
R25H | 3.72 kcal/mol
I36P | 2.59 kcal/mol
I36H | 3.15 kcal/mol
I36F | 3.44 kcal/mol

Variant | folding stability dG
I36R | 3.17 kcal/mol
I36N | 2.93 kcal/mol
I36G | 2.92 kcal/mol
I36K | 3.26 kcal/mol
I36A | 3.35 kcal/mol
I36L | 3.52 kcal/mol
I36D | 3.04 kcal/mol
I36E | 2.97 kcal/mol
I36T | 3.09 kcal/mol
I36S | 3.02 kcal/mol
I36M | 3.37 kcal/mol
I36Q | 3.11 kcal/mol
I36V | 3.36 kcal/mol
K33A | 3.77 kcal/mol
K33Y | 3.61 kcal/mol
K33F | 3.48 kcal/mol
K33P | 3.2 kcal/mol
K33T | 3.56 kcal/mol
K33W | 3.7 kcal/mol
K33D | 3.38 kcal/mol
K33E | 3.43 kcal/mol
K33N | 3.52 kcal/mol
K33I | 3.56 kcal/mol
K33V | 3.55 kcal/mol

Variant | folding stability dG
K33G | 3.34 kcal/mol
K33C | 3.99 kcal/mol
K33H | 3.51 kcal/mol
K33M | 3.57 kcal/mol
K33R | 4.02 kcal/mol
K33L | 3.63 kcal/mol
K33S | 3.39 kcal/mol
K33Q | 3.62 kcal/mol
W34I | 3.6 kcal/mol
W34L | 3.72 kcal/mol
W34A | 4.01 kcal/mol
W34D | 3.39 kcal/mol
W34Q | 3.64 kcal/mol
W34M | 3.61 kcal/mol
W34T | 3.45 kcal/mol
W34H | 3.54 kcal/mol
W34V | 3.35 kcal/mol
W34R | 3.98 kcal/mol
W34F | 3.42 kcal/mol
W34Y | 3.43 kcal/mol
W34C | 3.78 kcal/mol
W34N | 3.48 kcal/mol
W34K | 3.81 kcal/mol
W34G | 3.11 kcal/mol

Variant | folding stability dG
W34E | 3.41 kcal/mol
W34P | 2.66 kcal/mol
W34S | 3.43 kcal/mol
L22T | 3.08 kcal/mol
L22S | 3.1 kcal/mol
L22I | 3.56 kcal/mol
L22H | 3.12 kcal/mol
L22A | 3.2 kcal/mol
L22V | 3.3 kcal/mol
L22M | 3.53 kcal/mol
L22R | 3.31 kcal/mol
L22D | 2.66 kcal/mol
L22Q | 3.13 kcal/mol
L22E | 2.7 kcal/mol
L22Y | 3.22 kcal/mol
L22C | 4.73 kcal/mol
L22K | 3.05 kcal/mol
L22F | 3.63 kcal/mol
L22G | 3.01 kcal/mol
L22W | 4.08 kcal/mol
L22P | 2.68 kcal/mol
L22N | 3.05 kcal/mol
I20S | 3.18 kcal/mol
I20P | 2.65 kcal/mol

Variant | folding stability dG
I20L | 3.35 kcal/mol
I20V | 3.66 kcal/mol
I20Y | 3.27 kcal/mol
I20W | 3.4 kcal/mol
I20K | 3.01 kcal/mol
I20F | 3.32 kcal/mol
I20D | 2.84 kcal/mol
I20R | 3.13 kcal/mol
I20N | 3.08 kcal/mol
I20M | 3.26 kcal/mol
I20Q | 3.12 kcal/mol
I20G | 2.71 kcal/mol
I20T | 3.73 kcal/mol
I20A | 2.94 kcal/mol
I20E | 3.32 kcal/mol
I20H | 3.17 kcal/mol
L21T | 2.78 kcal/mol
L21I | 3.83 kcal/mol
L21N | 3.01 kcal/mol
L21K | 2.98 kcal/mol
L21A | 3.37 kcal/mol
L21W | 3.33 kcal/mol
L21S | 3.12 kcal/mol
L21Y | 3.28 kcal/mol

Variant | folding stability dG
L21G | 2.83 kcal/mol
L21M | 3.36 kcal/mol
L21P | 2.6 kcal/mol
L21F | 3.49 kcal/mol
L21H | 2.92 kcal/mol
L21R | 3.14 kcal/mol
L21V | 3.9 kcal/mol
L21D | 2.71 kcal/mol
L21E | 3.06 kcal/mol
L21Q | 2.93 kcal/mol
E30W | 4.01 kcal/mol
E30F | 3.76 kcal/mol
E30L | 3.91 kcal/mol
E30S | 3.69 kcal/mol
E30Q | 3.77 kcal/mol
E30Y | 3.75 kcal/mol
E30G | 3.64 kcal/mol
E30I | 3.75 kcal/mol
E30M | 3.86 kcal/mol
E30D | 3.63 kcal/mol
E30R | 3.84 kcal/mol
E30N | 3.56 kcal/mol
E30V | 3.94 kcal/mol
E30T | 3.57 kcal/mol

Variant | folding stability dG
E30A | 4 kcal/mol
E30H | 3.59 kcal/mol
E30K | 3.65 kcal/mol
E30P | 3.54 kcal/mol
T27W | 3.95 kcal/mol
T27E | 3.44 kcal/mol
T27S | 3.67 kcal/mol
T27M | 3.88 kcal/mol
T27Y | 3.74 kcal/mol
T27A | 3.94 kcal/mol
T27P | 3.18 kcal/mol
T27V | 3.91 kcal/mol
T27I | 3.9 kcal/mol
T27N | 3.99 kcal/mol
T27G | 3.67 kcal/mol
T27R | 3.52 kcal/mol
T27F | 4.03 kcal/mol
T27Q | 3.44 kcal/mol
T27D | 4.05 kcal/mol
T27K | 3.59 kcal/mol
T27L | 3.98 kcal/mol
T27H | 3.79 kcal/mol
